Reference: the supplement of paper PMC12042874
± gives the uncertainty stated by the source.

Experiment: amyloid nucleation score (Sup35N fusion, yeast selection) (log enrichment); library NNK2; higher = more nucleation; inactive = no reads after selection
How it was run: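 Output and input plasmid inserts were sequenced by Illumina after psi-negative yeast carrying Sup35N fused to peptides of 20 random codons had been induced 24 hours with 100 μM copper sulfate and grown 7 days at 30°C on medium lacking adenine and uracil. The nucleation score is the DiMSum log enrichment of output over input reads, centred on the mode score of non-aggregating sequences. Sequences with under 100 input reads were excluded.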

| Substance | amyloid nucleation score |
| --- | --- |
| CLLHMWIGLSSKVGGVRDA | -0.781 ± 0.79 |
| CLLLRVTR | 0.015 ± 0.27 |
| CLPGTCRRCQWGRGIDQSSE | 0.317 ± 0.41 |
| CLSRHAHRRRGMVYAGDYRA | -0.256 ± 0.49 |
| CLTSGHL | 0.372 ± 0.74 |
| CLVINSIKVFYARVGTSYKF | 2.01 ± 0.19 |
| CLVYVGRVPSRIGDHRITAY | 0.966 ± 0.38 |
| CMEETMVSSLKLLTRPMTSR | 0.052 ± 0.29 |
| CMFKQYYYCARAYSVSWTVM | -0.013 ± 0.56 |
| CMGDNVIC | -0.954 ± 0.37 |
| CMLMYVYMIDWRPINFMFF | 5.301 ± 0.041 |
| CMNGPFTLTRPTARGRIRC | 0.32 ± 0.51 |
| CMSNTMCAFVDGYNMHYLVD | inactive |
| CMYNRLLLLGALFVTPQWVR | 0.079 ± 0.5 |
| CNFHCPI | 2.63 ± 0.17 |
| CNFVTILLGMN | 4.85 ± 0.055 |
| CNIRAYDIISTLMHFVLCH | -1.67 ± 0.55 |
| CNLSFVGS | 0.287 ± 0.25 |
| CNNQRYVNNGITRNGRNDAG | -0.604 ± 0.76 |
| CNRAQLNVSPNLDDMRKFGV | -0.506 ± 1 |
| CNRGLKFAVGFKLLTIPTSL | inactive |
| CNVSSWSFLPPS | inactive |

| Substance | amyloid nucleation score |
| --- | --- |
| CNYMSVWN | -0.021 ± 0.74 |
| CPLFYMSMISGFEGIFSLHK | inactive |
| CPLNLPTLGRLATEKRAWG | -0.177 ± 0.79 |
| CQGHQWSYRPVP | 0.684 ± 0.35 |
| CQRTLQTGAYRDGLCIYGLS | 1.38 ± 0.41 |
| CRHYKFV | -0.097 ± 1.1 |
| CRMFSEHSYRRSSLSVPGMN | inactive |
| CRNLPGVCEMPSGVANYRVL | -0.547 ± 1.1 |
| CRSAVRRILGFNLSRVFSWF | -0.417 ± 0.64 |
| CRSNQNESLNGC | 0.436 ± 0.21 |
| CRSRT | 0.978 ± 0.28 |
| CRSSGFRFTLRKWCWNVNEC | -0.7 ± 0.76 |
| CRSWTHKSHIPVKLSNDTMS | -0.106 ± 0.63 |
| CSCMKFWKFLLIRQSYKPGM | 2.16 ± 0.18 |
| CSEVQNLFNM | inactive |
| CSFCRPFVTCILIRSKVCGW | 1.21 ± 0.11 |
| CSFLYIGLVIPSFEYDHALL | 4.171 ± 0.041 |
| CSFRAFLWCILGGGENFNSS | 2.91 ± 0.065 |
| CSGYSERAPRFCSDLIVCST | 0.574 ± 0.51 |
| CSMFSKLMVNSGLSSVLTVM | 0.047 ± 0.28 |
| CSNSFLI | -0.868 ± 1.1 |
| CSVVTNGLLNMSSFPHVFCM | 1.79 ± 0.11 |

| Substance | amyloid nucleation score |
| --- | --- |
| CSWVRSLYNGIVLKKH | -0.652 ± 0.45 |
| CTCFVLSGSVV | 2.4 ± 0.13 |
| CTCLWNDMRRGP | 1.99 ± 0.25 |
| CTCTDTEDKWVKSGYSRGAH | 2.22 ± 0.079 |
| CTEFSLTDCSSG | inactive |
| CTFHFVSGHTTTGSR | 1 ± 0.66 |
| CTFLRNIGFLYWYVSPLNLG | inactive |
| CTQVMTERV | -0.091 ± 0.32 |
| CTSMGA | -0.291 ± 0.79 |
| CTSVGFTYHRDFWYMGFWSR | 0.919 ± 0.15 |
| CTVFCLQRSFGHYSLMMLIN | 2.22 ± 0.12 |
| CVAWKR | 0.554 ± 0.48 |
| CVCDLCVPWVLNFGR | 8.914 ± 0.051 |
| CVCSVYAGNFCLIVLVWLMV | 0.433 ± 0.74 |
| CVCYDLYELLAITQLHLWSF | -0.344 ± 0.48 |
| CVDTSFCLYARELILCAR | -0.121 ± 0.5 |
| CVDVDIKMLPGFCRCNIPLC | -1.34 ± 1.1 |
| CVFVPIKLGGDGLTVYLKCI | -0.996 ± 0.45 |
| CVHLLSVSGWDFQYYFQAFN | 1.17 ± 0.13 |
| CVIGCSGWKRIFIISILYRV | -0.562 ± 1 |
| CVKVNWVSV | -0.81 ± 0.76 |
| CVMSFYPELIILASSFCVPF | -1.22 ± 0.36 |

| Substance | amyloid nucleation score |
| --- | --- |
| CVTQSR | -0.086 ± 0.26 |
| CVVKDSSTVFM | -1.9 ± 1 |
| CVVQHSRSFVRPLLSTLQAC | 0.453 ± 0.23 |
| CVWGWNRSYTYYYGDAIGHC | inactive |
| CWARMWGYSKCHSRVFSYMS | -1.1 ± 0.55 |
| CWDRFTYEYLSFYSLISRV | inactive |
| CWFPWSSYLRNMFELPKTWL | 0.529 ± 0.55 |
| CWQVYLIFMGRMVCLTVML | 1.15 ± 0.66 |
| CYAPKYGRHWP | 0.708 ± 0.49 |
| CYFSGSVSRTSVRLVLLSNG | -0.573 ± 1.1 |
| CYGLYPEDLLCMYGKLDLPR | 0.229 ± 0.61 |
| CYINKVRCMMHLWDHDDTWG | 0.734 ± 0.81 |
| CYLVYFSYKLHQI | -1.43 ± 1.1 |
| CYSLSYLILVCR | 5.73 ± 0.041 |
| CYTDTMARK | 4.15 ± 0.047 |
| CYVDFSYLVNKFYWGPRWMP | -0.049 ± 0.5 |
| CYVRI | -0.603 ± 1.1 |
| CYVVAREKSLIETGNFGKYG | -0.653 ± 0.79 |
| CYYVDIVVSHQRTTSVMVGD | 0.698 ± 0.29 |
| DACWFMIGHIGFC | inactive |
| DAITCGVHFAKDLNWVYIEV | inactive |
